Assays:
[1] = target: c-Src SH2; assay: SH2 binding enrichment of the phosphorylated peptide, bacterial display (enrichment ratio); higher = better substrate or ligand; peptides without Tyr show the background
[2] = target: Grb2 SH2 (UniProt P62993); assay: as above
[3] = target: SHP2-C SH2; assay: as above
[4] = target: EPHB2 (UniProt P29323); assay: phosphorylation enrichment, bacterial display (enrichment ratio); higher = better substrate or ligand; peptides without Tyr show the background
[5] = target: Hck (UniProt P08631); assay: as above
[6] = tested on: c-Src; assay: as above
[7] = tested on: Fer (mouse); assay: as above
[8] = tested on: c-Abl (mouse); assay: as above
[9] = target: FGFR1 (UniProt P11362); assay: as above
[10] = target: FGFR3 (UniProt P22607); assay: as above
[11] = target: Fyn (UniProt P06241); assay: as above
[12] = target: Fes (UniProt P07332); assay: as above
[13] = tested on: AncSZ; assay: as above
[14] = target: EPHB1 (UniProt P54762); assay: as above
[15] = target: Jak2 (UniProt O60674); assay: as above
[16] = target: MERTK (UniProt Q12866); assay: as above
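For SH2 binding enrichment of the phosphorylated peptide, bacterial display in this document: peptide library displayed on the E. coli surface as eCPX fusions, selected cells deep-sequenced, score is each peptide's frequency after selection divided by its frequency in the input.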
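For phosphorylation enrichment, bacterial display in this document: 11-residue human phosphosite peptides and single-mutation variants displayed on the E. coli surface, counted by deep sequencing, each peptide's frequency after selection divided by its frequency in the unselected input library; frequency after pTyr selection over input frequency; kinase dosed for 20-30% of maximal phosphorylation in three min.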

Sequence of Jak2 (O60674 whole entry, looked up): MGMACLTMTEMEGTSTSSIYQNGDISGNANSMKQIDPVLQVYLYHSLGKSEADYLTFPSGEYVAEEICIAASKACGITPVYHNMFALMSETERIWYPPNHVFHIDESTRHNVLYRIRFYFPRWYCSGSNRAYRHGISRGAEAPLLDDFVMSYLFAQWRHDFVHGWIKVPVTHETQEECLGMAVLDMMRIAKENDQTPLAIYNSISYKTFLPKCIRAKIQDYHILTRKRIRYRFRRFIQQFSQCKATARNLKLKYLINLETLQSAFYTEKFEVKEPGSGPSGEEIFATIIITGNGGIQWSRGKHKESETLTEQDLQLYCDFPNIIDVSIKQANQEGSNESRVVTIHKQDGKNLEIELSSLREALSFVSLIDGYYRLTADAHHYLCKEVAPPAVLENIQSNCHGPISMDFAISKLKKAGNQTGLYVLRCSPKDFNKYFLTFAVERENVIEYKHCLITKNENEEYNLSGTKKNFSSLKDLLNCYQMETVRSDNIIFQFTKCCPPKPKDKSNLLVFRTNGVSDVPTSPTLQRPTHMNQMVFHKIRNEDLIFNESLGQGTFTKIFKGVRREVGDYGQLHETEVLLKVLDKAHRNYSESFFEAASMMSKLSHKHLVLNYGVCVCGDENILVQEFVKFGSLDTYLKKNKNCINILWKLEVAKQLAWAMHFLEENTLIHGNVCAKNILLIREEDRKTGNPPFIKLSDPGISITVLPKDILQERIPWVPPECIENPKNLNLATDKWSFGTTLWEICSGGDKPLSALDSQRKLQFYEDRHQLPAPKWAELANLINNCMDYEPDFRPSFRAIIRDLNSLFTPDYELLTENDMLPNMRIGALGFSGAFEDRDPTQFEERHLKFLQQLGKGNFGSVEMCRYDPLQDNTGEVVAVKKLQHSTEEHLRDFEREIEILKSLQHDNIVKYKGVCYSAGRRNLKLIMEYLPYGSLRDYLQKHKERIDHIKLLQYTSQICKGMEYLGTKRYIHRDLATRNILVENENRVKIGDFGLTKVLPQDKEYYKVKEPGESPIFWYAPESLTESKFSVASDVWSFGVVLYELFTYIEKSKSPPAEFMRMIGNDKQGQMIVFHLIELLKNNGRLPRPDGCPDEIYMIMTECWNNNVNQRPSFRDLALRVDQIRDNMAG
Sequence of Grb2 SH2 (P62993 whole entry, looked up): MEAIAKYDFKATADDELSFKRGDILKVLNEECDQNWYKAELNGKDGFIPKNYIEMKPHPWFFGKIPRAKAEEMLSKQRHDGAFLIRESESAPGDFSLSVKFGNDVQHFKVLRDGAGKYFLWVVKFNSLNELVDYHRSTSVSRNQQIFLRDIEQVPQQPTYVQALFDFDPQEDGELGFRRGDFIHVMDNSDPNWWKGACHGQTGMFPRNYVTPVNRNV
Sequence of MERTK (Q12866 whole entry, looked up, the tested form may be a part): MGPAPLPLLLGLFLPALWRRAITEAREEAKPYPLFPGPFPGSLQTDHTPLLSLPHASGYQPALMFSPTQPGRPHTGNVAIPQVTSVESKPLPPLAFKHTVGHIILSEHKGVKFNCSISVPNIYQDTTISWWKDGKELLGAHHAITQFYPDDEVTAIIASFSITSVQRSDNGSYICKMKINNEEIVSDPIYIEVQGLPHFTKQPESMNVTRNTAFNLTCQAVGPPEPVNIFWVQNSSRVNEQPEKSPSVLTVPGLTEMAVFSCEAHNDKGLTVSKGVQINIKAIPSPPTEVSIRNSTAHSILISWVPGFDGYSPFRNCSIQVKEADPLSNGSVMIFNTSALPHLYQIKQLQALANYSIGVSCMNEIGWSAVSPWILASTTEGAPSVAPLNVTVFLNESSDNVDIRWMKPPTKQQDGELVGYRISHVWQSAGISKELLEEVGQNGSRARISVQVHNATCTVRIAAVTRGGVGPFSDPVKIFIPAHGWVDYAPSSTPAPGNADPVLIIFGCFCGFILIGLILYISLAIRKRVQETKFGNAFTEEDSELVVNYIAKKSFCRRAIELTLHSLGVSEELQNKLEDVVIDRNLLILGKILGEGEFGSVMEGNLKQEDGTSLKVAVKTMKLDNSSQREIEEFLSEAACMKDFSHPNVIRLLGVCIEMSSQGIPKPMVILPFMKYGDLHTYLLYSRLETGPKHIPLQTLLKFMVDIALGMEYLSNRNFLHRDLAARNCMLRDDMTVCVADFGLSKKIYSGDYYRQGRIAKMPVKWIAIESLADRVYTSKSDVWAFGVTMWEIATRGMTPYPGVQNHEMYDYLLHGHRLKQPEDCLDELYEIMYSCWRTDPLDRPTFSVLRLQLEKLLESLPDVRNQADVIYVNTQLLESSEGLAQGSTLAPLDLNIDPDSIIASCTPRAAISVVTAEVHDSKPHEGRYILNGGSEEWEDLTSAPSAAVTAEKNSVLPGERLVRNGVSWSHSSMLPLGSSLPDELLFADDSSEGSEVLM
Sequence of EPHB2 (P29323 whole entry, looked up): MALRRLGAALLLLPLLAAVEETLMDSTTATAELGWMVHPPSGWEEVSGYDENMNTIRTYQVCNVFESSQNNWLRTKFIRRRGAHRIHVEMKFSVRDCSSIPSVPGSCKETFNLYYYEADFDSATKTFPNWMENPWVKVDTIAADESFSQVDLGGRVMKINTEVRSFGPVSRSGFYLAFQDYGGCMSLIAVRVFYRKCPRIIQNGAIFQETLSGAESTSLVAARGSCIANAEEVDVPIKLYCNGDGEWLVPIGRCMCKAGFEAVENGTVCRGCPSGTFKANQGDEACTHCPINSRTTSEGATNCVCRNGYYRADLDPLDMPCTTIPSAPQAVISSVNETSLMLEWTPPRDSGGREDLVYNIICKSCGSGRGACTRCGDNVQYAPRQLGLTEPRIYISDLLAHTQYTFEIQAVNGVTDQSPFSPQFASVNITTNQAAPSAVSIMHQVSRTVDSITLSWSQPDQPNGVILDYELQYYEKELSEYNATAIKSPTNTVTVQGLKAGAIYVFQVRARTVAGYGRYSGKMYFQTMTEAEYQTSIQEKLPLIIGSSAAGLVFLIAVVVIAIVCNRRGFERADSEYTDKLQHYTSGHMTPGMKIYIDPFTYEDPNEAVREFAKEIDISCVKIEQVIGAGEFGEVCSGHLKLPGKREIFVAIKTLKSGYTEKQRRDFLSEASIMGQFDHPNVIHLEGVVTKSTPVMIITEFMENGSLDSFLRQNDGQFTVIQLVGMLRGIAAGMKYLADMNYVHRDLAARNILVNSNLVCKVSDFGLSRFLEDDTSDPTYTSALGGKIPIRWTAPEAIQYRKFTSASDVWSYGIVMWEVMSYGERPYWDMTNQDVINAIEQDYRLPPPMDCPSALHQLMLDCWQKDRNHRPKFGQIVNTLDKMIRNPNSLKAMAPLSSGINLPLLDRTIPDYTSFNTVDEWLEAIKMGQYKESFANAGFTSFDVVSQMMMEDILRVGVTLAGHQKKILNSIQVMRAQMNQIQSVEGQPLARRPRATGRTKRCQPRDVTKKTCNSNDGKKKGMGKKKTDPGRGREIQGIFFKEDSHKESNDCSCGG
Sequence of EPHB1 (P54762 whole entry, looked up): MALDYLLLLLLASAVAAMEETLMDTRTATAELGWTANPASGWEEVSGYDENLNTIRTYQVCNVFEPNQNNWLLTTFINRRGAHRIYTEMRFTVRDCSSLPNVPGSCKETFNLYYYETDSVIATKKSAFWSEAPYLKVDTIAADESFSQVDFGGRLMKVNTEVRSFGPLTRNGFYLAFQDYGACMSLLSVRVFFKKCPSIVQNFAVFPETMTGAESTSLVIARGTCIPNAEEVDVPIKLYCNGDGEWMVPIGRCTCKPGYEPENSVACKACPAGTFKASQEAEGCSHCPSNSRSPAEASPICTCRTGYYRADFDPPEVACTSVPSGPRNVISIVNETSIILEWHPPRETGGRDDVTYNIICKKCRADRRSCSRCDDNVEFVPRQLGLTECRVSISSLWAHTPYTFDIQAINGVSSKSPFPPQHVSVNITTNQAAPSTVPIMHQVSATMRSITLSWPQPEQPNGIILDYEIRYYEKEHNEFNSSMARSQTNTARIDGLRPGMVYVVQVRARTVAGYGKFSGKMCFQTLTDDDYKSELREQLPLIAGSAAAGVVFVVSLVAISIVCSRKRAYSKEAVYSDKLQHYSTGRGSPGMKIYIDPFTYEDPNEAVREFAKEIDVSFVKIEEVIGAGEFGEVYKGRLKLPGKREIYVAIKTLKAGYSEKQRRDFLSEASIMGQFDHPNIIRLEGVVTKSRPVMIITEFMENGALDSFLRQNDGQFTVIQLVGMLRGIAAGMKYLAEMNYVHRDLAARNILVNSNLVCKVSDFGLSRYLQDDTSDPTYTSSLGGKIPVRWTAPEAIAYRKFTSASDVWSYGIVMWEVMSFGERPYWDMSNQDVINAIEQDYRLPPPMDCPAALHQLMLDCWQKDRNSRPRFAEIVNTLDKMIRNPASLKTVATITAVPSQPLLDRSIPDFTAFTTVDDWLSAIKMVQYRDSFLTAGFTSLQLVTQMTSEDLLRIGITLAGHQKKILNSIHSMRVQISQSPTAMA
Sequence of Hck (P08631 whole entry, looked up): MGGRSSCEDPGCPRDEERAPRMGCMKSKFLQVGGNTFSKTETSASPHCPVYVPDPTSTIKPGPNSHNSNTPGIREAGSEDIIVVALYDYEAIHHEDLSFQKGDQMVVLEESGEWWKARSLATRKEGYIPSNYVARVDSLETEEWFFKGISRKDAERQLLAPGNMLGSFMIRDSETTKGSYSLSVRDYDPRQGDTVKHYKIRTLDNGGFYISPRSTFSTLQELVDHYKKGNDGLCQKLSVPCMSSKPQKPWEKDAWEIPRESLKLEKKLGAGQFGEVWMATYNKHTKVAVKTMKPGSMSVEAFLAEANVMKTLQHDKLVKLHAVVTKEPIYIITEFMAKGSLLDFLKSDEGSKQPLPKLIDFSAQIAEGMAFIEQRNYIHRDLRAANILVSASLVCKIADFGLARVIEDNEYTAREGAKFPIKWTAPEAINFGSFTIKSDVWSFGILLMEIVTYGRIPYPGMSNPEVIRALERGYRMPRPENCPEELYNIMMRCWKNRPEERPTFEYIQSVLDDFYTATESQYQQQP

Sequence | SH2 binding enrichment [1] | SH2 binding enrichment [2] | SH2 binding enrichment [3] | phosphorylation enrichment [4] | phosphorylation enrichment [5] | phosphorylation enrichment [6] | phosphorylation enrichment [7] | phosphorylation enrichment [8] | phosphorylation enrichment [9] | phosphorylation enrichment [10] | phosphorylation enrichment [11] | phosphorylation enrichment [12] | phosphorylation enrichment [13] | phosphorylation enrichment [14] | phosphorylation enrichment [15] | phosphorylation enrichment [16]
GRLFAYPDTHC [CAT_Y358_R363C] | 0.531 | 0.835 | 0.846 | 0.512 | 0.481 | 0.403 | 0.479 | 0.75 | 0.466 | 0.687 | 0.466 | 1.05 | 0.784 | 0.556 | 0.785 | 0.432
AMGPVYQAAAL [HYOU1_Y421_A419P] | 0.528 | 0.736 | 0.826 | 1.25 | 6.53 | 4.05 | 6.15 | 3.43 | 0.502 | 0.435 | 5.43 | 0.611 | 0.657 | 0.933 | 0.615 | 1.03
ETELPYQELQG [TYROBP_Y91_S89L] | 0.84 | 0.727 | 0.504 | 0.58 | 0.941 | 2.5 | 0.997 | 0.872 | 1.65 | 1.5 | 0.737 | 1.18 | 1.58 | 0.535 | 1.02 | 0.566
SVLVPYEPPEV [TP53_Y220_V217L] | 1.14 | 0.892 | 0.859 | 0.757 | 0.651 | 0.541 | 0.63 | 0.874 | 0.505 | 0.899 | 0.555 | 1.33 | 1.36 | 0.651 | 1.32 | 0.463
DLQDEYDFKCK [STAT1_Y170] | 0.448 | 0.825 | 0.561 | 0.702 | 0.766 | 0.546 | 0.555 | 0.877 | 0.668 | 0.772 | 0.543 | 1.31 | 1.28 | 0.598 | 1.19 | 0.538
KGEDFYYVTCH [FHL1_Y149_C150Y] | 0.412 | 0.636 | 0.565 | 0.729 | 0.724 | 0.774 | 0.71 | 1.11 | 1.35 | 1.69 | 0.692 | 1.43 | 1.35 | 0.802 | 1.43 | 1.32
LEQQKYTVTID [IKBKB_Y199_V203I] | 0.486 | 0.826 | 0.752 | 0.81 | 0.682 | 0.569 | 0.518 | 0.696 | 0.75 | 0.975 | 0.638 | 1.57 | 1.27 | 0.932 | 1.02 | 0.602
RIAFQYGVTDL [MYBPC3_Y340] | 0.535 | 0.93 | 0.815 | 0.627 | 0.647 | 0.879 | 0.558 | 0.992 | 0.45 | 1.08 | 0.522 | 1.28 | 1.41 | 0.709 | 1.47 | 0.514
IKSSIYDNRKE [ARAP2_Y380] | 0.445 | 0.934 | 0.741 | 0.321 | 0.753 | 0.58 | 0.355 | 0.518 | 0.538 | 0.504 | 0.366 | 0.725 | 1.13 | 0.307 | 0.586 | 0.416
RIDPDYMGRVR [IGSF9_Y81_V82M] | 0.577 | 1.03 | 0.629 | 0.367 | 0.369 | 0.466 | 0.4 | 0.585 | 0.344 | 0.656 | 0.487 | 0.572 | 0.649 | 0.35 | 0.643 | 0.442
FGSRLYKFAFK [FANCD2_Y458_L456R_YF] | 0.568 | 0.877 | 0.583 | 0.557 | 0.439 | 0.515 | 0.311 | 0.456 | 0.399 | 0.484 | 0.433 | 0.651 | 0.571 | 0.354 | 0.582 | 0.406
RHYVYYYSYLL [PTEN_Y177_R173H] | 0.536 | 1.03 | 0.906 | 2.13 | 2.49 | 2.18 | 1.37 | 1.35 | 7.03 | 6.42 | 1.59 | 2.26 | 1.89 | 2.69 | 3.46 | 5.71
HESEIYCKVCY [CSRP3_Y57] | 1.8 | 1.58 | 1.81 | 0.782 | 7.96 | 7.01 | 2.51 | 1.01 | 1.03 | 0.855 | 5.52 | 1.25 | 1.41 | 0.925 | 1.14 | 2.65
GSSSSYGQHGS [HRNR_Y517] | 0.375 | 0.868 | 1.43 | 0.343 | 0.339 | 0.256 | 0.316 | 0.322 | 0.396 | 0.293 | 0.376 | 0.472 | 0.376 | 0.315 | 0.352 | 0.309
WSISFYPQVIM [CTNS_Y143] | 0.571 | 0.883 | 0.588 | 0.552 | 0.399 | 0.35 | 0.471 | 0.623 | 0.513 | 0.805 | 0.354 | 1.33 | 1.21 | 0.586 | 1.19 | 0.301
RGEAVYSRDCV [XPC_Y676] | 0.522 | 0.788 | 0.751 | 0.655 | 2.93 | 2.34 | 0.472 | 0.692 | 0.718 | 1.01 | 2.95 | 1.2 | 0.997 | 0.764 | 1.01 | 0.857
LKDEDYLKDIV [HAUS3_Y582] | 0.455 | 0.912 | 0.983 | 0.843 | 0.787 | 1.02 | 1.4 | 1.64 | 1.04 | 0.988 | 0.791 | 1.85 | 2.21 | 0.861 | 2.87 | 0.884

Sequence | SH2 binding enrichment [1] | SH2 binding enrichment [2] | SH2 binding enrichment [3] | phosphorylation enrichment [4] | phosphorylation enrichment [5] | phosphorylation enrichment [6] | phosphorylation enrichment [7] | phosphorylation enrichment [8] | phosphorylation enrichment [9] | phosphorylation enrichment [10] | phosphorylation enrichment [11] | phosphorylation enrichment [12] | phosphorylation enrichment [13] | phosphorylation enrichment [14] | phosphorylation enrichment [15] | phosphorylation enrichment [16]
SLGKGYSDGGC [MC4R_Y35] | 0.632 | 0.763 | 0.678 | 0.473 | 0.427 | 0.387 | 0.399 | 0.603 | 0.576 | 0.585 | 0.47 | 0.773 | 0.636 | 0.456 | 0.719 | 0.392
ASFPLYEPAKM [MKI67_Y340] | 0.535 | 0.889 | 0.707 | 21.1 | 8.34 | 2.97 | 16.3 | 0.635 | 0.426 | 0.493 | 4.36 | 1.52 | 0.789 | 18.1 | 0.484 | 3.18
ATDLAYFLVRE [ASL_Y375_K380E_YF] | 1.26 | 0.827 | 1.67 | 0.953 | 0.782 | 0.783 | 0.797 | 0.939 | 4.9 | 3.95 | 0.809 | 1.51 | 1.54 | 1.02 | 2.29 | 0.694
RFLKDYGEFEV [GINS1_Y156_C152Y_YF] | 0.43 | 1.26 | 0.749 | 0.569 | 0.695 | 1.07 | 0.63 | 0.835 | 0.582 | 0.877 | 0.85 | 1.39 | 1.04 | 0.497 | 1.13 | 0.778
DNPAKYFILEN [DPP10_Y512_S517N] | 0.828 | 0.659 | 0.636 | 0.456 | 0.392 | 0.495 | 0.531 | 0.935 | 0.557 | 0.617 | 0.459 | 1.2 | 1.03 | 0.59 | 1.41 | 0.509
AVLQPYIFVAT [CFTR_Y1014] | 0.329 | 0.65 | 0.545 | 0.804 | 0.586 | 0.701 | 0.674 | 0.978 | 1.2 | 1.41 | 0.606 | 1.69 | 1.56 | 0.84 | 1.84 | 0.55
KVQVSYKGETK [HSPA1A_Y107] | 0.493 | 0.875 | 0.656 | 0.449 | 0.346 | 0.352 | 0.378 | 0.85 | 0.429 | 0.432 | 0.426 | 0.511 | 0.608 | 0.442 | 0.428 | 0.387
MYQVQYNSSVD [LRFN1_Y458] | 0.514 | 0.735 | 0.748 | 0.69 | 0.505 | 0.417 | 0.52 | 0.52 | 0.488 | 0.686 | 0.559 | 0.963 | 1.05 | 0.606 | 0.721 | 0.699
AAYNKYDQERF [CDC73_Y293_R292K] | 0.58 | 0.923 | 0.863 | 0.335 | 0.299 | 0.398 | 0.419 | 0.588 | 0.332 | 0.454 | 0.371 | 0.762 | 0.54 | 0.364 | 0.739 | 0.287
FKDFFYCWNTF [AICDA_Y146_YF] | 0.423 | 0.696 | 0.631 | 0.804 | 0.624 | 1.25 | 1.41 | 1.19 | 0.749 | 1.09 | 0.618 | 1.93 | 1.87 | 0.862 | 1.73 | 2.55
NVLPEYKLQAP [KCNH2_Y388_D383N] | 0.455 | 0.906 | 0.564 | 0.632 | 0.527 | 0.439 | 0.402 | 0.677 | 0.411 | 0.619 | 0.508 | 0.949 | 0.784 | 0.518 | 0.813 | 0.43
MGCVNYGAYIN [GLB1_Y485_R482C] | 0.569 | 1.44 | 0.606 | 0.83 | 0.572 | 1.08 | 0.571 | 1.39 | 0.469 | 0.851 | 0.578 | 1.37 | 1.32 | 0.793 | 1.56 | 0.483
KAIMTYVSSFF [ACTN4_Y260_YF] | 0.677 | 0.962 | 0.878 | 0.602 | 0.531 | 0.592 | 0.437 | 0.527 | 0.533 | 0.647 | 0.559 | 0.821 | 0.911 | 0.57 | 0.561 | 0.494
VGTKRYMAPKV [ACVRL1_Y375_E379K] | 0.632 | 1.19 | 1.44 | 0.282 | 0.327 | 0.304 | 0.443 | 0.625 | 0.391 | 0.372 | 0.301 | 0.456 | 0.377 | 0.274 | 0.482 | 0.424
KTTILYKLKLG [ARF1_Y35] | 0.865 | 1.33 | 0.973 | 0.411 | 0.401 | 0.336 | 0.426 | 0.719 | 0.404 | 0.688 | 0.358 | 1 | 1.01 | 0.41 | 0.909 | 0.376
LFEDCYLLGTS [ASS1_Y87_R86C_YF] | 0.647 | 1.24 | 0.924 | 0.716 | 0.58 | 1.6 | 0.752 | 1.17 | 0.895 | 1.15 | 1.01 | 1.5 | 2.1 | 0.572 | 1.39 | 0.442
